From US5482996A, “Protein-containing polymers and a method of synthesis of protein-containing polymers in organic solvents” (University of Pittsburgh, priority 1993, dated 1996)

B1: Subtilisin Carlsberg, native (pure subtilisin standard) (Bacillus licheniformis) (protein)
chain: AQTVPYGIPLIKADKVQAQGFKGANVKVAVLDTGIQASHPDLNVVGGASFVAGEAYNTDGNGHGTHVAGTVAALDNTTGVLGVAPSVSLYAVKVLNSSGSGSYSGIVSGIEWATTNGMDVINMSLGGASGSTAMKQAVDNAYAKGVVVVAAAGNSGSSGNTNTIGYPAKYDSVIAVGAVDSNSNRASFSSVGAELEVMAPGAGVYSTYPTNTYATLNGTSMASPHVAGAAALILSKHPNLSASQVRNRLSSTATYLGSSFYYGKGLINVEAAAQ
notes: purchased Sigma Chemical Co
B2: Subtilisin Carlsberg, unmodified fraction purified from the PEG modification reaction mixture (Bacillus licheniformis) (protein)
chain: B1 chain
notes: purchased Sigma Chemical Co

How the values were obtained:
[1] = substrate: C[C@H](NC(=O)CCC(=O)O)C(=O)N[C@@H](C)C(=O)N1CCC[C@H]1C(=O)N[C@@H](Cc1ccccc1)C(=O)Nc1ccc([N+](=O)[O-])cc1; experiment: Hydrolysis of peptide p-nitroanilide substrate, kinetic constants; type: biochemical; conditions: other: Tris-HCl buffer (0.1M, pH 8.6)
Experimental: (§1) Kinetic studies of the modified protein were performed using substrate (N-succinyl-L-alanyl-L-alanyl-L-prolyl-L-phenylalanyl p-nitroanilide) in 0.1M Tris-HCl buffer, pH 8.6. The purified HPLC fractions (three total) were tested for activity while increasing the substrate concentrations in equal increments. Substrate concentration versus rate was plotted to determine Vmax and Km using non-linear regression analysis. A standard of pure subtilisin was analyzed as a control.
As set forth above, the activity of the modified enzymes was assessed with the artificial peptide substrate succinyl-L-alanyl-L-alanyl-L-prolyl-L-phenylalanyl p-nitroanilide. A sample of 30 mg modified protein powder was dissolved in tetrahydrofuran, and filtered with a solvent resistant 0.22 μm filter in order to remove the insoluble native protein. The solvent was evaporated and, as mentioned above, values for Vmax and Km were determined.

[2] = substrate: C[C@H](NC(=O)CCC(=O)O)C(=O)N[C@@H](C)C(=O)N1CCC[C@H]1C(=O)N[C@@H](Cc1ccccc1)C(=O)Nc1ccc([N+](=O)[O-])cc1; experiment: as above; type: biochemical; conditions: other: Tris-HCl buffer (0.1M, pH 8.6); remark: listed apart in the source
Experimental: as §1
Before reacting PEG-subtilisin with other materials it is necessary to fully characterize the activity and stability of the "bio-monomer". Using solubility, IMAC, and HPLC the modified protein was separated into predominantly singly or doubly modified protein fractions. […] Thus, the activities and stabilities noted are average properties for the sample being studied. For comparison to the native protein, unmodified protein was purified from the modification reaction mixture and characterized to some degree.
As set forth above, the activity of the modified enzymes was assessed with the artificial peptide substrate succinyl-L-alanyl-L-alanyl-L-prolyl-L-phenylalanyl p-nitroanilide. […] The solvent was evaporated and, as mentioned above, values for Vmax and Km were determined.

Protein	Km [1]	Km [2]
B1	120 µM	–
B2	–	170 µM
